Experimental data as given in PMC8352940 (Nature Communications, 2021).
Where a chain is given by its changes, count along the chain named.

What was measured:
[1] = target: SARS-CoV-2 RBD-Fc fusion protein (SARS-CoV-2, UniProt P0DTC2); experiment: ELISA; details: both partners purified
[2] = target: SARS-CoV-2 RBD without the Fc fragment (SARS-CoV-2, UniProt P0DTC2); experiment: ELISA; details: both partners purified

B1: nCoVFab1 (Fab, V domains shown)
VH: QVQLVESGGGLVQPGGSLRLSCAASGFTVSSNYMSWVRQAPGKGLEWVSVIYSGGSTYYADSVKGRFTISRDNSKNTLYLQMNSLRAEDTAVYYCARGDGSDDYYYGMDVWGQGTTVTVSS
VL: QSVVTQPPSVSGAQGQRVFISCTGNGANIGMGYDVHWYQQLPGRAPKLLIFGNTNRPSGVPDRFSASRSGTSASLAITGLQTADEADYYCQSYDGNLRASVFGGGTKLTVL
notes: source: E. coli strain HB2151, purified (nickel-nitrilotriacetic acid resin)
In the case of B1, the EC50 [1] is reported as about 16 nM.

B2: nCoVmab1gFR (antibody, V domains shown)
VH: B1 VH with Q1E
VL: B1 VL with Q14P, F19T, N25S, R44T, F51Y, A66G, R68K, T82A, A83E
B2: binds [2].

B3: nCoVmab1_(gHgL) (antibody, V domains shown)
VH: B1 VH with Q1E, D102Y, D103Y
VL: QSVVTQPPSVSGAPGQRVTISCTGSSSNIGAGYDVHWYQQLPGTAPKLLIYGNSNRPSGVPDRFSGSKSGTSASLAITGLQAEDEADYYCQSYDSSLSGWVFGGGTKLTVL
B3: no binding [2].

B4: nCoVmab2 (antibody, V domains shown)
VH: B1 VH with Q1E, E6Q, L11V, G16R
VL: B3 VL with S2A, V4L, P8S, I29V, W100S
notes: also called nCoVFab2 in IgG1 format; source: 293F cells, purified (Protein A resin)
Binder B4 has an EC50 [2] of 0.84 nM.

B5: nCoVFab2 (Fab, V domains shown)
VH: B1 VH with Q1E, E6Q, L11V, G16R
VL: B3 VL with S2A, V4L, P8S, I29V, W100S
notes: as for B1
B5 showed an EC50 [1] of about 63 nM.

B6: nCoVmab1 (antibody, V domains shown)
VH: B1 VH
VL: B1 VL
notes: also called nCoVFab1 in IgG1 format; source: 293F cells, purified (Protein A resin)
B6 gave an EC50 [2] of 0.56 nM.

B7: nCoVmab1_(gHmL) (antibody, V domains shown)
VH: B1 VH with Q1E, D102Y, D103Y
VL: B1 VL
B7: no binding [2].
